# According to patent publication US20130196320A1, “METHOD FOR IMPROVING CLEAVAGE OF DNA BY ENDONUCLEASE SENSITIVE TO METHYLATION” (CELLECTIS, priority 2010, published 2013):
# Where two headings read alike, the source gives them in different places.
# B1: I-CreI: wild-type I-CreI meganuclease (… homing endonuclease), SEQ ID NO: 1, recombinant Cterm His-tag (protein, listed as Chlamydomonas reinhardtii)
# chain: MNTKYNKEFLLYLAGFVDGDGSIIAQIKPNQSYKFKHQLSLTFQVTQKTQRRWFLDKLVDEIGVGYVRDRGSVSDYILSEIKPLHNFLTQLQPFLKLKQKQANLVLKIIEQLPSAKESPDKFLEVCTWVDQIAALNDSKTRKTTSETVRAVLDSLSEKKKSSP
# modifications: C-terminal His-tag
# Legend:
# [1] = test system: C1221 DNA target; assay: In vitro cleavage assay with C1221 duplex, increasing meganuclease concentration; type: biochemical
# Description: FIG. 2: In vitro cleavage of unmethylated or methylated C1221 by I-CreI. A constant amount of C1221 (50 nM) was incubated with increasing concentrations of I-CreI (0 to 2 μM) in reaction buffer (10 mM Tris-HCl, 150 mM NaCl, 10 mM MgCl2, pH8) for an hour at 37° C. The reaction was stopped and the remaining uncleaved C1221 was quantify and plotted as function of I-CreI concentration.
# FIG. 3: In vitro cleavage of unmethylated or methylated C1221 by I-CreI D75N. 50 nM C1221 containing either 0, 1, 2 or 3 methylated CG was incubated with increasing concentrations of I-CreI D75N (0 to 2 μM) in reaction buffer (10 mM Tris-HCl, 150 mM NaCl, 10 mM MgCl2, pH8) for an hour at 37° C. The reaction was stopped and cleaved and uncleaved C1221 (top and bottom panel respectively) were quantify and plotted as function of I-CreI D75N concentration.
# To investigate the influence of C1221 methylation on the nuclease activity of I-CreI, an in vitro cleavage assay with either unmethylated or fully methylated C1221 duplex (SEQ ID NOs: 4-5 and 12-13 respectively) was performed. A constant amount of C1221 duplex (50 nM) was incubated with increasing concentration of I-CreI (0 to 2 μM) in a total volume of 25 μL of reaction buffer (10 mM Tris-HCl, 150 mM NaCl, 10 mM MgCl2, pH8). Cleavage reaction was allowed to proceed 1 hour at 37° C. and then stopped by addition of 5 μL of 6× stop buffer (45% glycerol, 95 mM EDTA, 1.5% (w/v) SDS, 1.5 mg/mL proteinase K and 0.048% (w/v) bromophenol blue) followed by an hour incubation at 37° C. Cleaved and uncleaved DNA products were separated by PAGE using a TGX Any kD precast gel (Bio-Rad), stained with SYBR Green and then quantified using Quantity One software (Bio-Rad).
# To investigate the influence of C1221 methylation on the nuclease activity of I-CreI D75N, in vitro cleavage assay with C1221 duplex containing either 0, 1, 2 or 3 methylated CG (SEQ ID NOs: 4-5, 6-7, 8-9, 10-11 respectively) was performed, according to the procedure described for I-CreI wild type.
# [2] = test system: C1234 DNA target; assay: In vitro binding assay, fluorescence anisotropy of fluorescein-labeled C1234 duplex
# Description: FIG. 4: Spectrofluorimetric titration of fluorescein-labeled C1234 by I-Cre I wild type. 25 nM of C1234 duplex was incubated with increasing concentrations of I-Cre I [from 0 to 400 nM, only 0-80 nM shown] in binding buffer (10 mM Tris-HCl, 400 mM NaCl, 10 mM CaCl2, 10 mM DTT, pH8) at 25° C. After 30 minutes incubation, the fluorescence anisotropy of the mixture was recorded with a Pherastar Plus (BMG Labtech) operating in fluorescence polarization end point mode with excitation and emission wavelengths set to 495 and 520 nm respectively. Normalized fluorescence anisotropy is plotted as a function of active I-Cre I concentration. Apparent dissociation constant were determined by fitting raw data by an hyperbolic function (Ax=(A∞*[Meganuclease])/(Kd+[Meganuclease]) with Ax, the fluorescence anisotropy value obtained at a given meganuclease concentration, A∞, the fluorescence anisotropy value obtained at saturating concentration of meganuclease and Kd the dissociation constant of the equilibrium studied).
# Fluorescein labeled C1234 oligonucleotides were synthesized and HPLC-purified by Eurogentec. To prepare C 1234 duplex corresponding to I-Cre I double strand DNA wild type target, C1234 forward (SEQ ID NO: 31, “a” strand below) labeled with Fluorescein on its 5′ end was mixed with 1 equivalent of C1234_reverse (SEQ ID NO: 32, “b” strand below) in 100 mM Tris-HCl, 50 mM EDTA, 150 mM NaCl, pH8. The mixture was heated to 95° C. for 2 min and then cooled down to 25° C. over 1 hour. C1234 duplex was eventually purified by anion exchange chromatography using a miniQ PE column (GE healthcare) pre-equilibrated with buffer A (20 mM Tris-HCl, pH7.4). Single stranded oligonucleotides and other contaminants were first discarded using a 0 to 360 mM NaCl step gradient and elution of pure C1234 duplex was performed with a 360-1000 mM NaCl linear gradient (5 column volumes). C 1234 duplex and fluorescein final concentrations were assessed by spectrophotometry using their respective extinction coefficients ε260nm=62900 M^−1 cm^−1 and ε495nm=83000 M^−1 cm^−1. As expected, a ratio [C1234 duplex]/[fluorescein]˜1 was obtained. The same procedure was used to prepare the different methylated forms of C 1234 duplex (C 1234_Me full composed of SEQ ID NO: 35+SEQ ID NO: 38, C1234_Me-6a/-5b composed of SEQ ID NO: 33+SEQ ID NO: 36, C1234_Me-3a/-2b composed of SEQ ID NO: 34+SEQ ID NO: 37, C1234_Me-3a composed of SEQ ID NO: 34+SEQ ID NO: 32, C1234_Me-2b composed of SEQ ID NO: 31+SEQ ID NO: 37, respectively where “a” and “b” designate each of the DNA strands; for example C1234 Me-6a/-5b is a duplex with methylations at position −6 on strand “a” and at position −5 on strand “b”, respectively) and the random target corresponding to a stretch of 12 GA repeats, (forward, SEQ ID NO: 39 and reverse, SEQ ID NO: 40). To investigate the binding of I-Cre I to C1234 duplex, 25 nM of C1234 duplex was incubated with increasing concentrations of I-Cre I (from 0 to 400 nM) in binding buffer (10 mM Tris-HCl, 400 mM NaCl, 10 mM CaCl2, 10 mM DTT, pH8) at 25° C. After 30 minutes incubation, the fluorescence anisotropy of the mixture was recorded with a Pherastar Plus (BMG Labtech) operating in fluorescence polarization end point mode with excitation and emission wavelengths set to 495 and 520 nm respectively. Apparent dissociation constants were determined by fitting raw data by an hyperbolic function (Ax=(A∞*[Meganuclease])/(Kd+[Meganuclease]) with Ax, the fluorescence anisotropy value obtained at a given meganuclease concentration, A∞, the fluorescence anisotropy value obtained at saturating concentration of meganuclease and Kd the dissociation constant of the equilibrium studied).
molecule,measurement,setting,value
B1,EC50,"[1]; fully methylated C1221, 1 hour at 37° C., read-out: C50 (concentration of I-CreI needed to cleave 50% of C1221)",> 2000 nM
same,I-CreI concentration at which C1221 is totally cleaved,[1]; unmethylated C1221,250 nM
same,EC50,"[1]; unmethylated C1221, 1 hour at 37° C., read-out: C50 (concentration of meganuclease needed to cleave 50% of C1221)",100 nM
same,affinity compared with unmethylated C1234,[2]; C1234 Me-5b/-2b,much lower affinity
same,Kd,[2]; C1234_Me full (fully methylated),> 1000 nM
same,affinity for fully methylated C1234 lower than for unmethylated C1234,[2]; C1234_Me full vs unmethylated,at least 400 times
same,Kd,[2]; C1234_Me-2b,40.8 nM
same,Kd,[2]; C1234_Me-5b,24 nM
same,Kd,[2]; C1234_Me-5b/-2b,> 1000 nM
same,Kd,[2]; C1234_Me-6a/-3a,≤ 2.5 nM
same,factor by which methylation affected affinity with respect to unmethylated C1234,[2]; C1234 methylated in position −2b,≤ 10
same,factor by which methylation affected affinity with respect to unmethylated C1234,[2]; C1234 methylated in position −5b,≤ 10
same,Kd,[2]; unmethylated C1234,≤ 2.5 nM
